Residue numbers refer to the chain shown, from its start.

From US20170342155A1 (Amgen, published 2017) come the findings set out here.

Test [1] addresses T1, wild-type human CCR7 (pcDNA3.1 Neo-hCCR7, 20100121357) (human, UniProt P32248 25-378).
T1 construct: Expressed on transfected 293T, CHO AM1/D or HEK293T cells; also called huCCR7; CCR7 receptor
T1 sequence: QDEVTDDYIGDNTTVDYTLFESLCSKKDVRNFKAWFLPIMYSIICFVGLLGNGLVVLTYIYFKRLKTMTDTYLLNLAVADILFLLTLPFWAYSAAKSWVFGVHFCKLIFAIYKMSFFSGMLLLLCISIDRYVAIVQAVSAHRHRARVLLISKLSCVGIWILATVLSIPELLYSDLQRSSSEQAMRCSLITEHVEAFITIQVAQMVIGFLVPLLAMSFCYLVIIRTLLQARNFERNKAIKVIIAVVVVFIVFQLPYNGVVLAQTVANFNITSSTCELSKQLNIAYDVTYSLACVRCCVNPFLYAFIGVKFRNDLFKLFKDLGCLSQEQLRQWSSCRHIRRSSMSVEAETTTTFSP
Kind of test: hybridoma screening on cells expressing human CCR7.

In test [2] the target is T1, wild-type human CCR7 (pcDNA3.1 …). Kind of test: flow cytometry on transfected 293T cells, PE secondary antibody, geo mean.

B1: antibody 6B4.1 (antibody, V domains shown)
VH: QVQLVESGGGVVQPGRSLRLSCAASGFTFSSYGMHWVRQAPGKGLEWVAVIWYDGSKKYYADSVKGRFTISRDNSKNTLYLQMNRLRAEDTAVYYCARDGGIAVFLQDNWFDPWGQGTLVTVSS
VL: SYELTQPPSVSVSPGQRARITCSGDKLGDKYASWYQQKPGQSPLLVIYQDSKRPSGIPERFSGSNSGNTATLTISGTQAMDEADYYCQAWGSSTVIFGGGTKLTVLG
notes: Human antibody from XenoMouse hybridoma; Light = 2 and heavy = 42 is inferred from the order of the listing (light chains first)
With B1, the binding result in test [1] is listed as “binds”.

B2: antibody 6B5.1 (antibody, human IgG2, lambda, V domains shown)
VH: B1 VH with S30R, Q107E
VL: B1 VL with R19S, S51G
notes: Human antibody from XenoMouse hybridoma; Light = 18 and heavy = 50 is inferred from the order of the listing
In the case of B2, the binding result in test [2] is “binds”.
